Data on nine sequences can be found in the supplement of paper PMC10065799, “High-throughput profiling of sequence recognition by tyrosine kinases and SH2 domains using bacterial peptide display” (eLife, 2023).

One data set concerns the target c-Src SH2. In words: SH2 binding enrichment of the phosphorylated peptide, bacterial display (enrichment ratio); higher = better substrate or ligand; peptides without Tyr show the background.
For another data set, the target named is Grb2 SH2 (UniProt P62993). The data set is described as above.
Chain of Grb2 SH2 (P62993 whole entry, looked up): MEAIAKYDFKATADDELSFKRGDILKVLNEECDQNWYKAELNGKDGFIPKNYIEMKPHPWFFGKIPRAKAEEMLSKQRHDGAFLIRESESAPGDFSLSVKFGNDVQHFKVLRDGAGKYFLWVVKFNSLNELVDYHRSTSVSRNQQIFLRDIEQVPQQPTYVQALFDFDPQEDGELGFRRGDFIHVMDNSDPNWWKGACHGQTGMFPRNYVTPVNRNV
For another data set, the target named is SHP2-C SH2. The data set is described as above.
Another data set deals with MERTK (UniProt Q12866). Put plainly: phosphorylation enrichment, bacterial display (enrichment ratio); higher = better substrate or ligand; peptides without Tyr show the background.
Chain of MERTK (Q12866 whole entry, looked up): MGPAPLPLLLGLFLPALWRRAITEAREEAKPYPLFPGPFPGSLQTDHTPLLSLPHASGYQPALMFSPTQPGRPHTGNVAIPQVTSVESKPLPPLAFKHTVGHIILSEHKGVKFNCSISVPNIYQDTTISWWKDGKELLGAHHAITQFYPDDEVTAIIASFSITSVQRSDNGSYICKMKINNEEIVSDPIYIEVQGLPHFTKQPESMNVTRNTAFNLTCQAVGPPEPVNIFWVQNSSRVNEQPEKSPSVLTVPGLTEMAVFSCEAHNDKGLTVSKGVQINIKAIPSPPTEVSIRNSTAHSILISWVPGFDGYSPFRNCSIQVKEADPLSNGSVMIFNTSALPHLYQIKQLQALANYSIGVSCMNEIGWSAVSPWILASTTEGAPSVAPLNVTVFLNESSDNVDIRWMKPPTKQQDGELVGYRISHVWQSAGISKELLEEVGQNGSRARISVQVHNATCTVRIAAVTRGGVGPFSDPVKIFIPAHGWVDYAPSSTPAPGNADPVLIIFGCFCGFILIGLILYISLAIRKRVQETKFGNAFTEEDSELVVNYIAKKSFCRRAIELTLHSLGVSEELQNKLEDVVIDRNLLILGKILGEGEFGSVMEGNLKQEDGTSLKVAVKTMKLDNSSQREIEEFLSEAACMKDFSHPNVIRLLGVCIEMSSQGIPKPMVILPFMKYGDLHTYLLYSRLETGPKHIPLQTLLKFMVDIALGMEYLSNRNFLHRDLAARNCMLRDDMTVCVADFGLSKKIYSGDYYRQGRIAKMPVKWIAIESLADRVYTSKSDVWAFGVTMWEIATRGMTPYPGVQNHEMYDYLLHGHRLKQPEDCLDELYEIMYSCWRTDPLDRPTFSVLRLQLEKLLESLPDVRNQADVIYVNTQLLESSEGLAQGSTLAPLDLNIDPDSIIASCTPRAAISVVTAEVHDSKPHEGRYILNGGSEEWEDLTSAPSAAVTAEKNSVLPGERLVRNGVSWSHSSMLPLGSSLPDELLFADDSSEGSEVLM
The target in a further data set is Hck (UniProt P08631). Described as above.
In another data set the test system is AncSZ. Described as above.
The target of another data set is EPHB2 (UniProt P29323). Described as above.
Chain of EPHB2 (P29323 whole entry, looked up): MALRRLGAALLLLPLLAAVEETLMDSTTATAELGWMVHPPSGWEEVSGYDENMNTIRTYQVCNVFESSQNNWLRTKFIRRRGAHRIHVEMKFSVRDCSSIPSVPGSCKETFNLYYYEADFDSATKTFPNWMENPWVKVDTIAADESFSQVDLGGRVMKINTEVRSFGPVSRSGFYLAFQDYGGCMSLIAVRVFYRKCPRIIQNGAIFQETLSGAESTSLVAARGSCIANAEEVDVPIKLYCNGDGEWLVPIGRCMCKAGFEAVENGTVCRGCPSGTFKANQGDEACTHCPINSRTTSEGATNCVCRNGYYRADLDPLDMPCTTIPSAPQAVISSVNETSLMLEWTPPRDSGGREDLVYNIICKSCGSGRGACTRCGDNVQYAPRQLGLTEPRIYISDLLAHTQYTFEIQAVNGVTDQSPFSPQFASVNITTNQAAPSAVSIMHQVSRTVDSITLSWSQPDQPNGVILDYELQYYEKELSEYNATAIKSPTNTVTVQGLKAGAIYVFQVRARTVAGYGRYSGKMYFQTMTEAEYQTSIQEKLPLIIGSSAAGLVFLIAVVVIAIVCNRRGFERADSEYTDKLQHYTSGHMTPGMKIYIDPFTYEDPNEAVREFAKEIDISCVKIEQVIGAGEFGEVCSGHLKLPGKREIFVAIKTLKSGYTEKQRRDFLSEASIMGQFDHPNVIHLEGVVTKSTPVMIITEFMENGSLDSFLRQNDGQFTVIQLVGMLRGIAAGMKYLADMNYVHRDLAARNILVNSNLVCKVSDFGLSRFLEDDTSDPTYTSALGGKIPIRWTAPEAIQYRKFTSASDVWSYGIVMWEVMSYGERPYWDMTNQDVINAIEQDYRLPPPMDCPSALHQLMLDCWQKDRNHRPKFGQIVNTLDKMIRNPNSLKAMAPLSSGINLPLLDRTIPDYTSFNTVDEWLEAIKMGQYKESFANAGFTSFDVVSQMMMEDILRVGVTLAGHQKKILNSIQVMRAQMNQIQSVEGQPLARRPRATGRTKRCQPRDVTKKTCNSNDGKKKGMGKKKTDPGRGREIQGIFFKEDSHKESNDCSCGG
The next data set concerns c-Abl (mouse). The description is as above.
Another data set concerns the target Fyn (UniProt P06241). The description is as above.
In another data set the test system is c-Src. The data set is described as above.
A further data set deals with Jak2 (UniProt O60674). The description is as above.
Chain of Jak2 (O60674 whole entry, looked up): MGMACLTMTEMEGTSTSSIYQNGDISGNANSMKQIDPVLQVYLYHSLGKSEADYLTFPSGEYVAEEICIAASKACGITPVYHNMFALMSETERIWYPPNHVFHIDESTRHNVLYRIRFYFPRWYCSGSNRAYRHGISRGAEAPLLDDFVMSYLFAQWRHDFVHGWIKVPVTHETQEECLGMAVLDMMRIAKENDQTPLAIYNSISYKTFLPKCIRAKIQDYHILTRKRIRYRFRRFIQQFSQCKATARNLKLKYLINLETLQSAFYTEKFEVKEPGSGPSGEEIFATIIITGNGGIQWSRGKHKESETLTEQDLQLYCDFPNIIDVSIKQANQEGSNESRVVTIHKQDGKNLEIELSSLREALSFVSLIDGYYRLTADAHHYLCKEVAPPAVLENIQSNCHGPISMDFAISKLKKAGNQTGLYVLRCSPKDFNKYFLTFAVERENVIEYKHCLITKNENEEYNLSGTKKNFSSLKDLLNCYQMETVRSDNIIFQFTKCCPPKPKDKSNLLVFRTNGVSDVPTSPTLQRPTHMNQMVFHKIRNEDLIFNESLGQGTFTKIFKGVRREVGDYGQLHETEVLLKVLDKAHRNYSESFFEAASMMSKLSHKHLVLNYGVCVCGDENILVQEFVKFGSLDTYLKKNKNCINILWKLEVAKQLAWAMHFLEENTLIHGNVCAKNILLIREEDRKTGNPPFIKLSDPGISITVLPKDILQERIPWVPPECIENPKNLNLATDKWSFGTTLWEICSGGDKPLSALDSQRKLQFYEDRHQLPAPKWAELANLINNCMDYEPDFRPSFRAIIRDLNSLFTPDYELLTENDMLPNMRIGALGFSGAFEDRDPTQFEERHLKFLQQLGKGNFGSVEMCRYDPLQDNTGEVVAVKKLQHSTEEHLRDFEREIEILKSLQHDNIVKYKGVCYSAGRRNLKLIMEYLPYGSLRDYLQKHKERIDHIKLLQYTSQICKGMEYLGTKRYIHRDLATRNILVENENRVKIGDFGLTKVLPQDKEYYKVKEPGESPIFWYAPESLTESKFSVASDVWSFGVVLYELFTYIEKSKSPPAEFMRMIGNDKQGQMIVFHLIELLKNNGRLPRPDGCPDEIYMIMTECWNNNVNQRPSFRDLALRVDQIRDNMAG
The next data set addresses EPHB1 (UniProt P54762). The description is as above.
A further data set has as its target FGFR3 (UniProt P22607). The data set is described as above.
The target in the next data set is FGFR1 (UniProt P11362). The data set is described as above.
Another data set has as its target Fes (UniProt P07332). The data set is described as above.
Another data set relates to Fer (mouse). The data set is described as above.
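For SH2 binding enrichment of the phosphorylated peptide, bacterial display in this document: peptide library displayed on the E. coli surface as eCPX fusions, selected cells deep-sequenced, score is each peptide's frequency after selection divided by its frequency in the input.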
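For phosphorylation enrichment, bacterial display in this document: 11-residue human phosphosite peptides and single-mutation variants displayed on the E. coli surface, counted by deep sequencing, each peptide's frequency after selection divided by its frequency in the unselected input library; frequency after pTyr selection over input frequency; kinase dosed for 20-30% of maximal phosphorylation in three min.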

Chain of Fyn (P06241 whole entry, looked up): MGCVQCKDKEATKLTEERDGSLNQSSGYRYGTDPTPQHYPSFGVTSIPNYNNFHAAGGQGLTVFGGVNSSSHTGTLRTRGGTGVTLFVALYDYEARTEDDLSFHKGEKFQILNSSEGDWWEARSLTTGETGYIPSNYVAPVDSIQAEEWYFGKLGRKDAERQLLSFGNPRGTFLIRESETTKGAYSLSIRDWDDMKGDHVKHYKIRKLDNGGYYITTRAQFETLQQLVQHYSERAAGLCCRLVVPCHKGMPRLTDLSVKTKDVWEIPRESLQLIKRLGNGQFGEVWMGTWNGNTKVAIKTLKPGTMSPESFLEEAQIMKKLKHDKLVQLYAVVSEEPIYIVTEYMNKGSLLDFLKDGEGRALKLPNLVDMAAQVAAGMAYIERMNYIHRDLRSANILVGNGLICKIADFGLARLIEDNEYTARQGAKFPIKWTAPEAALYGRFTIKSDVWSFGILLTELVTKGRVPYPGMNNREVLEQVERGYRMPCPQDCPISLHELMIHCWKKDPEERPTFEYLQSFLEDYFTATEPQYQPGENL
Chain of FGFR3 (P22607 whole entry, looked up): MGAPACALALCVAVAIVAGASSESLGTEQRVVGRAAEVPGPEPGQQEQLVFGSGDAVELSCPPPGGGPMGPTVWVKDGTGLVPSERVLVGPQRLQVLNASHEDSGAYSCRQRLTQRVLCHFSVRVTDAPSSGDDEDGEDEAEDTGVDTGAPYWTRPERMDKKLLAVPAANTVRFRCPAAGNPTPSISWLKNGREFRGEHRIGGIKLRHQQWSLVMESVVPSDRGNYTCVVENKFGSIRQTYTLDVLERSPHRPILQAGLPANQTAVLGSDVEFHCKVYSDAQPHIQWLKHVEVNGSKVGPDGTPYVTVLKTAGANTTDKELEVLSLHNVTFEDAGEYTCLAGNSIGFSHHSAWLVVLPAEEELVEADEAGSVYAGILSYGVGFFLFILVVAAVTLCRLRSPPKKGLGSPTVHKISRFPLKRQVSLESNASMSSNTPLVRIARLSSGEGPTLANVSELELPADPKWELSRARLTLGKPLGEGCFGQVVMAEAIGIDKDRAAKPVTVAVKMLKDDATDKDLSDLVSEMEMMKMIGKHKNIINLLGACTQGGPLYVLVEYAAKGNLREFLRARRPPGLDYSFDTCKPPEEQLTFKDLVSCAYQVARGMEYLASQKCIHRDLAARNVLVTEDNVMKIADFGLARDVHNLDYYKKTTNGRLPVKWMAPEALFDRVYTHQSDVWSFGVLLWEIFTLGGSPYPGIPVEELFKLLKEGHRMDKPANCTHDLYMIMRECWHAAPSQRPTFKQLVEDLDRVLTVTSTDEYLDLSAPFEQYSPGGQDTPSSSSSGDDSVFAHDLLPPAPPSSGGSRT

For the sequence GEFHVYRHLRR [PRKRIP1_Y82], the results for the SH2 binding enrichment in the data set with c-Src SH2, with Grb2 SH2 and with SHP2-C SH2 were 0.501, 0.601 and 0.358, respectively. In addition, the phosphorylation enrichment with MERTK stood at 0.494; in the data set with Hck, 0.57; with AncSZ, 1.3; with EPHB2, 0.465; in the data set on c-Abl (mouse) it was 0.601; in the data set with Fyn, 0.484. The phosphorylation enrichment with c-Src stood at 0.518; in the data set with Jak2, 0.896; with EPHB1 it was 0.43; with FGFR3, 0.581; with FGFR1 it was 0.57; with Fes, 0.863. Moreover, the phosphorylation enrichment with Fer (mouse) was determined as 0.4.

Take SVVVPYDPPEV [TP53_Y220_E221D]: the figures for the SH2 binding enrichment with c-Src SH2, with Grb2 SH2 and with SHP2-C SH2 were 0.855, 0.684 and 0.827, respectively. For the same sequence, the phosphorylation enrichment is 0.373 with MERTK; 0.488 with Hck; 1.02 with AncSZ; 0.51 in the data set with EPHB2; 0.629 with c-Abl (mouse); 0.48 with Fyn. Also, the phosphorylation enrichment was determined as 0.499 with c-Src; 1.01 with Jak2; 0.543 with EPHB1; 0.711 with FGFR3; 0.56 with FGFR1; 1.08 with Fes. Further, in the data set on Fer (mouse), the phosphorylation enrichment came to 0.465.

In the case of FSKTQYNQVPR [CXADR_Y318_S323R_YF], the SH2 binding enrichment with c-Src SH2 was determined as 0.64; with Grb2 SH2, 1.16; with SHP2-C SH2, 0.899. Moreover, the phosphorylation enrichment with MERTK is 0.428; with Hck, 0.457; in the data set with AncSZ, 0.482; in the data set with EPHB2, 0.361; in the data set with c-Abl (mouse) it was 0.6; in the data set with Fyn it was 0.437. The phosphorylation enrichment in the data set with c-Src turned out to be 0.484; in the data set with Jak2 it was 0.491; with EPHB1 it was 0.409; in the data set with FGFR3, 0.447; with FGFR1, 0.312; in the data set with Fes, 0.502. Also, the phosphorylation enrichment in the data set with Fer (mouse) worked out at 0.367.

For the sequence FRKNTYNVKST [SYNE2_Y575_I574T_YF], the SH2 binding enrichment with c-Src SH2 came to 0.679; in the data set with Grb2 SH2 it was 1.27; in the data set with SHP2-C SH2 it was 0.976. The phosphorylation enrichment in the data set with MERTK was 0.473; in the data set with Hck it was 0.402; with AncSZ it was 0.466; in the data set with EPHB2 it was 0.333; in the data set on c-Abl (mouse), 0.609; in the data set with Fyn it was 0.426. In addition, the phosphorylation enrichment with c-Src turned out to be 0.437; in the data set with Jak2, 0.402; in the data set with EPHB1 it was 0.425; with FGFR3, 0.366; with FGFR1, 0.352; with Fes, 0.578. In the data set on Fer (mouse), the phosphorylation enrichment stood at 0.375.

Turning to NSAFFYKTAEE [CCT6B_Y250_G247A], the SH2 binding enrichment with c-Src SH2 amounted to 0.565; with Grb2 SH2 it was 1.19; with SHP2-C SH2, 0.923. For the same sequence, the phosphorylation enrichment is 0.439 with MERTK; 0.496 with Hck; 0.962 in the data set on AncSZ; 0.472 in the data set with EPHB2; 0.593 with c-Abl (mouse); 0.524 with Fyn. Besides, the phosphorylation enrichment with c-Src is 0.38; with Jak2, 0.927; with EPHB1 it was 0.521; with FGFR3, 0.696; with FGFR1, 0.452; with Fes, 1.23. In the data set on Fer (mouse), the phosphorylation enrichment was 0.47.

Take DGTIVYTGLET [USH2A_Y4487]: the SH2 binding enrichment with c-Src SH2 was 0.844; in the data set with Grb2 SH2, 0.829; in the data set with SHP2-C SH2, 2.8. In addition, the phosphorylation enrichment was 0.465 with MERTK; 0.773 in the data set with Hck; 0.821 with AncSZ; 0.528 in the data set with EPHB2; 0.764 in the data set with c-Abl (mouse); 0.706 in the data set with Fyn. Also, the phosphorylation enrichment in the data set with c-Src was determined as 1.05; with Jak2, 0.901; with EPHB1, 0.525; with FGFR3, 0.636; with FGFR1, 0.755; with Fes it was 1.01. The phosphorylation enrichment in the data set on Fer (mouse) turned out to be 0.468.

On to MSLPGYKLVTG [GJA1_Y286_P283L], for which the SH2 binding enrichment worked out at 0.489 with c-Src SH2, 0.766 in the data set with Grb2 SH2 and 0.682 in the data set with SHP2-C SH2. Besides, the phosphorylation enrichment in the data set with MERTK is 0.364; with Hck it was 0.345; with AncSZ, 0.536; with EPHB2, 0.393; with c-Abl (mouse) it was 0.348; in the data set with Fyn, 0.378. In addition, the phosphorylation enrichment in the data set with c-Src was found to be 0.353; with Jak2, 0.497; in the data set with EPHB1 it was 0.374; with FGFR3 it was 0.456; with FGFR1, 0.495; with Fes, 0.585. The phosphorylation enrichment in the data set on Fer (mouse) stood at 0.518.

With GDAMLYYPSVS [GPR143_Y177_A173D], the SH2 binding enrichment with c-Src SH2 was found to be 0.773; in the data set with Grb2 SH2, 0.825; in the data set with SHP2-C SH2 it was 0.759. In addition, the phosphorylation enrichment in the data set with MERTK was 4.84; in the data set with Hck it was 2.77; in the data set with AncSZ, 0.95; with EPHB2, 0.702; with c-Abl (mouse), 1.36; in the data set with Fyn it was 0.957. The phosphorylation enrichment in the data set with c-Src is 2.22; with Jak2 it was 3.08; with EPHB1, 0.763; in the data set with FGFR3, 4.78; in the data set with FGFR1, 5.91; with Fes it was 0.736. Also, the phosphorylation enrichment in the data set on Fer (mouse) is 1.27.

On to ADFPDYKFRPR [SOX11_Y116_YF], for which the SH2 binding enrichment in the data set with c-Src SH2 came out at 0.614; in the data set with Grb2 SH2 it was 0.968; with SHP2-C SH2 it was 0.544. For the same sequence, the phosphorylation enrichment amounted to 0.413 with MERTK; 0.501 with Hck; 1.07 in the data set with AncSZ; 0.422 with EPHB2; 0.403 in the data set with c-Abl (mouse); 0.472 in the data set with Fyn. The phosphorylation enrichment in the data set with c-Src was determined as 0.357; with Jak2, 0.728; with EPHB1, 0.378; with FGFR3, 0.58; with FGFR1, 0.455; with Fes, 0.697. The phosphorylation enrichment in the data set with Fer (mouse) was 0.369.
